The target in assay [1] is PI4KB (isoform 2, E. coli produced, non-phosphorylated) (human) (UniProt Q9UBF8). The experiment in a line: HDX-MS.
In assay [2] the target is PI4KB phosphorylated at Ser496 (E. coli produced, PKA treated) (human) (UniProt Q9UBF8). The assay is described as follows: HDX-MS.

pKd: −log10 of the molar value.

The record followed here is publication doi:10.1101/634592.

For the substance “c10orf76 (untagged, E. coli produced) (from UniProt Q5T2E6 1-689) (natural protein)”, the pKd (as a rule, −log10 of the Kd, conventionally taken in molar units) in assay [1] was 7.52; in assay [2] it was 7.07.
